Measured values from US20140087995A1 (published 2014).
Numbered stars: 1 amine (or outer) side, 2 acyl side, 3 side chain; on linkers, the order of the positions; unused ones are H or OH. Bridge positions count the residues as written; N and C are the ends. Side chains are listed from the residue outwards. Ends that are not written are not given here. * marks the point of attachment. C20 diacid = O=C(O)CCCCCCCCCCCCCCCCCCC(=O)*; γGlu = O=C(O)[C@H](CCC(=O)[*:2])N[*:1]; AEEA = NCCOCCOCC(=O)O

T1: human amylin receptor (amylin 3(a) receptor: human calcitonin receptor co-expressed with RAMP-3) (human, UniProt P30988 25-474; O60896 24-148, limits assumed)
T1 sequence (looked up) 1: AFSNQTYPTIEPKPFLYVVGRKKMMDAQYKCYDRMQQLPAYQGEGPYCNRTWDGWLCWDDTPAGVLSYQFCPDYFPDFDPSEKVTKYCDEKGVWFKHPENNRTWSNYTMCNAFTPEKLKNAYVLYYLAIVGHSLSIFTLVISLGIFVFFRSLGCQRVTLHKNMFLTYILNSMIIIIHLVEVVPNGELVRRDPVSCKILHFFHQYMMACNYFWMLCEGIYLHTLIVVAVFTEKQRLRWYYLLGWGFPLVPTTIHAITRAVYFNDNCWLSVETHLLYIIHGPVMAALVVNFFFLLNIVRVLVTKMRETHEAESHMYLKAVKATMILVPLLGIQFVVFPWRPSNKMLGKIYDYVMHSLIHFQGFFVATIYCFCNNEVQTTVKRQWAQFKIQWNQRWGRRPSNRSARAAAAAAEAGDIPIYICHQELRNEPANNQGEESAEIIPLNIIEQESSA
T1 sequence (looked up) 2: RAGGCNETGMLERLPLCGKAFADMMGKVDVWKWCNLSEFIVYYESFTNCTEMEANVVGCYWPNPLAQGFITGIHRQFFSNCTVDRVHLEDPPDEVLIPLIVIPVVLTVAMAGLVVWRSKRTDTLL

T2: human calcitonin receptor (human, UniProt P30988 25-474)
T2 sequence (looked up): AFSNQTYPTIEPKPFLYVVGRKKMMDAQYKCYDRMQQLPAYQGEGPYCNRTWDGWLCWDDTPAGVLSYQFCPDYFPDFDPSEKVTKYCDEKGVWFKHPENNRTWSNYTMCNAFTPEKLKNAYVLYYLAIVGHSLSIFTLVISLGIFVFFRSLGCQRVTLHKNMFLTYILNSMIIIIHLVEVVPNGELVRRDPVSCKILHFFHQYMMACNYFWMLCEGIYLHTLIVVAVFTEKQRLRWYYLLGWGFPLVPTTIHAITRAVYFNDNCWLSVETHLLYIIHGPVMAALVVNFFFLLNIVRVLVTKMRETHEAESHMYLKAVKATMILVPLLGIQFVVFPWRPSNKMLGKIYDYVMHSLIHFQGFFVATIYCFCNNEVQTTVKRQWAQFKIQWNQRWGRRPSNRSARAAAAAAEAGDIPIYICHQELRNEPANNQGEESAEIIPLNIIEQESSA


How the values were obtained:
[1] = target: T1, human amylin receptor (amylin 3(a) …); assay: cell-based or functional assay
[2] = target: T2, human calcitonin receptor; assay: cell-based or functional assay

Binder	hAmylin-R funct. EC50 [1] [nM]	Ratio hCT/hAmylin funct. (hCTR EC50 against hAmylin-R EC50) [2]	hCTR funct. EC50 [2] [nM]
K([AEEA-γGlu-C20 diacid])CNTATCATQRLAAFLRHSSPNFGAIPSSTPVGSNTY-NH2 (disulfide 2-7; N-terminus assumed; SMILES CC[C@H](C)[C@H](NC(=O)[C@H](C)NC(=O)CNC(=O)[C@H](Cc1ccccc1)NC(=O)[C@H](CC(N)=O)NC(=O)[C@@H]1CCCN1C(=O)[C@H](CO)NC(=O)[C@H](CO)NC(=O)[C@H](Cc1c[nH]cn1)NC(=O)[C@H](CCCNC(=N)N)NC(=O)[C@H](CC(C)C)NC(=O)[C@H](Cc1ccccc1)NC(=O)[C@H](C)NC(=O)[C@H](C)NC(=O)[C@H](CC(C)C)NC(=O)[C@H](CCCNC(=N)N)NC(=O)[C@H](CCC(N)=O)NC(=O)[C@@H](NC(=O)[C@H](C)NC(=O)[C@@H]1CSSC[C@H](NC(=O)[C@@H](N)CCCCNC(=O)COCCOCCNC(=O)CC[C@H](NC(=O)CCCCCCCCCCCCCCCCCCC(=O)O)C(=O)O)C(=O)N[C@@H](CC(N)=O)C(=O)N[C@@H]([C@@H](C)O)C(=O)N[C@@H](C)C(=O)N[C@@H]([C@@H](C)O)C(=O)N1)[C@@H](C)O)C(=O)N1CCC[C@H]1C(=O)N[C@@H](CO)C(=O)N[C@@H](CO)C(=O)N[C@H](C(=O)N1CCC[C@H]1C(=O)N[C@H](C(=O)NCC(=O)N[C@@H](CO)C(=O)N[C@@H](CC(N)=O)C(=O)N[C@H](C(=O)N[C@@H](Cc1ccc(O)cc1)C(N)=O)[C@@H](C)O)C(C)C)[C@@H](C)O, also called compound 72)	0.106	44.9	4.76
K([AEEA-γGlu-C20 diacid])CNTATCATQRLARFLRHSSPNFGAIPSSTPVGSNTY-NH2 (disulfide 2-7; N-terminus assumed; SMILES CC[C@H](C)[C@H](NC(=O)[C@H](C)NC(=O)CNC(=O)[C@H](Cc1ccccc1)NC(=O)[C@H](CC(N)=O)NC(=O)[C@@H]1CCCN1C(=O)[C@H](CO)NC(=O)[C@H](CO)NC(=O)[C@H](Cc1c[nH]cn1)NC(=O)[C@H](CCCNC(=N)N)NC(=O)[C@H](CC(C)C)NC(=O)[C@H](Cc1ccccc1)NC(=O)[C@H](CCCNC(=N)N)NC(=O)[C@H](C)NC(=O)[C@H](CC(C)C)NC(=O)[C@H](CCCNC(=N)N)NC(=O)[C@H](CCC(N)=O)NC(=O)[C@@H](NC(=O)[C@H](C)NC(=O)[C@@H]1CSSC[C@H](NC(=O)[C@@H](N)CCCCNC(=O)COCCOCCNC(=O)CC[C@H](NC(=O)CCCCCCCCCCCCCCCCCCC(=O)O)C(=O)O)C(=O)N[C@@H](CC(N)=O)C(=O)N[C@@H]([C@@H](C)O)C(=O)N[C@@H](C)C(=O)N[C@@H]([C@@H](C)O)C(=O)N1)[C@@H](C)O)C(=O)N1CCC[C@H]1C(=O)N[C@@H](CO)C(=O)N[C@@H](CO)C(=O)N[C@H](C(=O)N1CCC[C@H]1C(=O)N[C@H](C(=O)NCC(=O)N[C@@H](CO)C(=O)N[C@@H](CC(N)=O)C(=O)N[C@H](C(=O)N[C@@H](Cc1ccc(O)cc1)C(N)=O)[C@@H](C)O)C(C)C)[C@@H](C)O, also called compound 64)	0.378	60.7	22.9
K([AEEA-γGlu-C20 diacid])CNTATCATQRLANFLRHSSPNFGAIPSSTNVGRNTY-NH2 (disulfide 2-7; N-terminus assumed; SMILES CC[C@H](C)[C@H](NC(=O)[C@H](C)NC(=O)CNC(=O)[C@H](Cc1ccccc1)NC(=O)[C@H](CC(N)=O)NC(=O)[C@@H]1CCCN1C(=O)[C@H](CO)NC(=O)[C@H](CO)NC(=O)[C@H](Cc1c[nH]cn1)NC(=O)[C@H](CCCNC(=N)N)NC(=O)[C@H](CC(C)C)NC(=O)[C@H](Cc1ccccc1)NC(=O)[C@H](CC(N)=O)NC(=O)[C@H](C)NC(=O)[C@H](CC(C)C)NC(=O)[C@H](CCCNC(=N)N)NC(=O)[C@H](CCC(N)=O)NC(=O)[C@@H](NC(=O)[C@H](C)NC(=O)[C@@H]1CSSC[C@H](NC(=O)[C@@H](N)CCCCNC(=O)COCCOCCNC(=O)CC[C@H](NC(=O)CCCCCCCCCCCCCCCCCCC(=O)O)C(=O)O)C(=O)N[C@@H](CC(N)=O)C(=O)N[C@@H]([C@@H](C)O)C(=O)N[C@@H](C)C(=O)N[C@@H]([C@@H](C)O)C(=O)N1)[C@@H](C)O)C(=O)N1CCC[C@H]1C(=O)N[C@@H](CO)C(=O)N[C@@H](CO)C(=O)N[C@H](C(=O)N[C@@H](CC(N)=O)C(=O)N[C@H](C(=O)NCC(=O)N[C@@H](CCCNC(=N)N)C(=O)N[C@@H](CC(N)=O)C(=O)N[C@H](C(=O)N[C@@H](Cc1ccc(O)cc1)C(N)=O)[C@@H](C)O)C(C)C)[C@@H](C)O, also called compound 78)	0.316	25.8	8.17
K([AEEA-γGlu-C20 diacid])CNTATCATQRLANFLRHSSPNFGAIPSSTNVGHNTY-NH2 (disulfide 2-7; N-terminus assumed; SMILES CC[C@H](C)[C@H](NC(=O)[C@H](C)NC(=O)CNC(=O)[C@H](Cc1ccccc1)NC(=O)[C@H](CC(N)=O)NC(=O)[C@@H]1CCCN1C(=O)[C@H](CO)NC(=O)[C@H](CO)NC(=O)[C@H](Cc1c[nH]cn1)NC(=O)[C@H](CCCNC(=N)N)NC(=O)[C@H](CC(C)C)NC(=O)[C@H](Cc1ccccc1)NC(=O)[C@H](CC(N)=O)NC(=O)[C@H](C)NC(=O)[C@H](CC(C)C)NC(=O)[C@H](CCCNC(=N)N)NC(=O)[C@H](CCC(N)=O)NC(=O)[C@@H](NC(=O)[C@H](C)NC(=O)[C@@H]1CSSC[C@H](NC(=O)[C@@H](N)CCCCNC(=O)COCCOCCNC(=O)CC[C@H](NC(=O)CCCCCCCCCCCCCCCCCCC(=O)O)C(=O)O)C(=O)N[C@@H](CC(N)=O)C(=O)N[C@@H]([C@@H](C)O)C(=O)N[C@@H](C)C(=O)N[C@@H]([C@@H](C)O)C(=O)N1)[C@@H](C)O)C(=O)N1CCC[C@H]1C(=O)N[C@@H](CO)C(=O)N[C@@H](CO)C(=O)N[C@H](C(=O)N[C@@H](CC(N)=O)C(=O)N[C@H](C(=O)NCC(=O)N[C@@H](Cc1c[nH]cn1)C(=O)N[C@@H](CC(N)=O)C(=O)N[C@H](C(=O)N[C@@H](Cc1ccc(O)cc1)C(N)=O)[C@@H](C)O)C(C)C)[C@@H](C)O, also called compound 76)	0.297	24.8	7.37

Further lines, results first:

hAmylin-R funct. EC50 [1] [nM]	Ratio hCT/hAmylin funct. (hCTR EC50 against hAmylin-R EC50) [2]	hCTR funct. EC50 [2] [nM]	Binder
0.064	9.8	0.625	K([AEEA-γGlu-C20 diacid])CNTATCATQRLANFLRHSSPNFGAIPPSTPVGSNTY-NH2 (disulfide 2-7, also called compound 53)
0.068	10.8	0.731	K([AEEA-γGlu-C20 diacid])CNTATCATQRLANFLRHSSPNFGAIPPSTNVGPNTY-NH2 (disulfide 2-7; N-terminus assumed; SMILES CC[C@H](C)[C@H](NC(=O)[C@H](C)NC(=O)CNC(=O)[C@H](Cc1ccccc1)NC(=O)[C@H](CC(N)=O)NC(=O)[C@@H]1CCCN1C(=O)[C@H](CO)NC(=O)[C@H](CO)NC(=O)[C@H](Cc1c[nH]cn1)NC(=O)[C@H](CCCNC(=N)N)NC(=O)[C@H](CC(C)C)NC(=O)[C@H](Cc1ccccc1)NC(=O)[C@H](CC(N)=O)NC(=O)[C@H](C)NC(=O)[C@H](CC(C)C)NC(=O)[C@H](CCCNC(=N)N)NC(=O)[C@H](CCC(N)=O)NC(=O)[C@@H](NC(=O)[C@H](C)NC(=O)[C@@H]1CSSC[C@H](NC(=O)[C@@H](N)CCCCNC(=O)COCCOCCNC(=O)CC[C@H](NC(=O)CCCCCCCCCCCCCCCCCCC(=O)O)C(=O)O)C(=O)N[C@@H](CC(N)=O)C(=O)N[C@@H]([C@@H](C)O)C(=O)N[C@@H](C)C(=O)N[C@@H]([C@@H](C)O)C(=O)N1)[C@@H](C)O)C(=O)N1CCC[C@H]1C(=O)N1CCC[C@H]1C(=O)N[C@@H](CO)C(=O)N[C@H](C(=O)N[C@@H](CC(N)=O)C(=O)N[C@H](C(=O)NCC(=O)N1CCC[C@H]1C(=O)N[C@@H](CC(N)=O)C(=O)N[C@H](C(=O)N[C@@H](Cc1ccc(O)cc1)C(N)=O)[C@@H](C)O)C(C)C)[C@@H](C)O, also called compound 55)
